Assay results: US8524666 (IBCC, dated 2013)

Columns and labels:
Test in all cases: GST pull-down from transfected MCF-7 lysate, western blot
[1] = target: T1, vimentin deletion mutant containing aa 97-466 of SEQ ID NO: 1 (human, UniProt P08670 97-464)
T1 construct: Tested in lysate of transfected MCF-7 cells; The forward oligo carries an ATG start codon before the fragment; not shown: C-terminal Myc and His tags of the pcDNA3.1/MycHis B vector
Experimental: (§1) Full length vimentin or its deletion mutant constructs were transfected into MCF-7 cells. After incubation cells were lysed and lysate was used in pull-down reaction using GST-tagged CD44-HABD proteins immobilised onto glutathione sepharose beads. After pull-down, beads were washed and bound proteins were eluted. Eluates were analysed on western blot. A, vimentin deletion mutants used in pull-down reactions. B, WB of pull-down reactions from vimentin and its deletion mutant transfected cell lysates.
(§2) CD44-3MUT binding of vimentin deletion mutants was tested using GST pull-down from cell lysates. MCF-7 cells were transfected with vimentin deletion-constructs on 15 cm cell culture plates using 20 µg DNA with polyethyleneimine (PEI; DNA and PEI were used in ratio 1:2). Transfected cells were incubated at 37° C. for 72 h. Thereafter, adherent cells were washed once with cold PBS and lysed in 2 ml of lysis buffer containing 50 mM Tris pH 8.0, 50 mM NaCl, 2% CHAPS and protease inhibitor cocktail (Roche). For removal of insoluble material the lysates were centrifuged 14000 rpm 30 min at 4° C. Resulting lysates were used in GST pull-down. For pull-down 10 µg GST, GST-HABD or GST-3MUT were immobilised onto glutathione sepharose 4 fast flow beads (GE Healthcare) in 0.5 ml of PBS. Cell lysates were precleared by incubating the lysates with GST-coupled glutathione beads for 2 h at 4° C. with continuous rotation. After preclearing, the lysates (0.6 vol per reaction) were incubated over-night at 4° C. with GST, GST-HABD or GST-3MUT proteins immobilised onto 25 µl glutathione sepharose beads. After pull-down reactions, beads were washed 4 times with 0.3 ml vol wash buffer containing 50 mM Tris pH 8.0, 150 mM NaCl and protease inhibitor cocktail. Bound proteins were eluted 3 times with 25 µl volume elution buffer 20 mM reduced glutathione, 50 mM Tris pH 8.0. Eluates were pooled and after SDS PAAG pull-down reactions were analysed by western blotting with anti-His specific pAb (H-15) (Santa Cruz Biotechnology) or anti-vimentin specific pAb (Genway).

[2] = target: T2, vimentin deletion mutant containing aa 134-466 of SEQ ID NO: 1 (human, UniProt P08670 134-464)
T2 construct: Tested in lysate of transfected MCF-7 cells; not shown: EGFP and linker of the pEGFP-C3 vector
Experimental: as §1, §2

[3] = target: T3, vimentin deletion mutant containing aa 407-466 of SEQ ID NO: 1 (human, UniProt P08670 407-464)
T3 construct: Tested in lysate of transfected MCF-7 cells; not shown: EGFP and linker of the pEGFP-C2 vector
Experimental: as §1, §2

Measured: binding result

T3 sequence (P08670 other isoform, or with tags, fused parts or gaps mutant): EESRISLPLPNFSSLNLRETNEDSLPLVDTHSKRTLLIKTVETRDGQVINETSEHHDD
T2 sequence (P08670 other isoform, or with tags, fused parts or gaps mutant): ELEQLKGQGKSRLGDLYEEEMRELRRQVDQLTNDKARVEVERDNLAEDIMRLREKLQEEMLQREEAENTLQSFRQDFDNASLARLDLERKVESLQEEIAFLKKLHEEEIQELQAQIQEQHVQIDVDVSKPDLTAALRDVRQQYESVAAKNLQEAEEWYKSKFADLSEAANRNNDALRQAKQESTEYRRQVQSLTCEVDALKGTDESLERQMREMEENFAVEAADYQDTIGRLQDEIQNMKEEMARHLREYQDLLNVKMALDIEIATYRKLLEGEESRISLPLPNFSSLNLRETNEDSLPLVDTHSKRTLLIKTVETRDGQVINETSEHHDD
T1 sequence (P08670 other isoform, or with tags, fused parts or gaps mutant): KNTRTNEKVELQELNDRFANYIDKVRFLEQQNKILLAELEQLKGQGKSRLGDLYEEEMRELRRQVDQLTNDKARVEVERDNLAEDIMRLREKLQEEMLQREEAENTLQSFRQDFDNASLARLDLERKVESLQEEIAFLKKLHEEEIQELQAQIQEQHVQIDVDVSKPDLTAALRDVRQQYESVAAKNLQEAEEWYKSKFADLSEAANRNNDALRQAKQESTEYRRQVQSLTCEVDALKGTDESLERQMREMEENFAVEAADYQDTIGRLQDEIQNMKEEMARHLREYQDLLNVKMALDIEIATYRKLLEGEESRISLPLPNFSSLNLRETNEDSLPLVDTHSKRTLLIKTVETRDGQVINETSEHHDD

B1: GST tagged CD44-HABD R41AR78SY79S mutant (CD44-3MUT) (other, not shown: a dimerising Fc or GST; small tags and cut ends)
chain: QIDLNMTCRFAGVFHVEKNGAYSISRTEAADLCKAFNSTLPTMAQMEKALSIGFETCSSGFIEGHVVIPRIHPNSICAANNTGVYILTSNTSQYDTYCFNASAPPEEDCTSV
notes: Immobilised on glutathione sepharose beads in the pull-downs; also called GST-3MUT; GST-SB101
no binding: [1] | [2] | [3]
